The source of these data is patent US20220396612A1 (UNIVERSIT DE TOURS, published 2022).

For test [1], the target named is T1, virus-like particles (VLPs) of BK polyomavirus VP-1 protein, serotype Ia (BK virus (BKPyV), serotype Ia, UniProt P03088 1-361).
T1 construct: self-assembled native VLPs coated on ELISA plates; also called VLP Ia; BKV VP-1, serotype Ia
T1 chain: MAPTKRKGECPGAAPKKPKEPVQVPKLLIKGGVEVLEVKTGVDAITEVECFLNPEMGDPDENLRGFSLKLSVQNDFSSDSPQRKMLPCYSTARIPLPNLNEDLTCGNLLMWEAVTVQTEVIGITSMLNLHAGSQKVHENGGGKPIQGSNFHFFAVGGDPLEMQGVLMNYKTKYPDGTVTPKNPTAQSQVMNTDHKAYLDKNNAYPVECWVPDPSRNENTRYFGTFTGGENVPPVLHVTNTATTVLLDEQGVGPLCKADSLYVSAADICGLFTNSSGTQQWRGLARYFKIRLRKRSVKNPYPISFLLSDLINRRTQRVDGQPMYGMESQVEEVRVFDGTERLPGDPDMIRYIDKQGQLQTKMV
Kind of test: ELISA on coated VLP.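 Note: hybridoma culture supernatants (mouse antibodies) tested on wells coated with 1 µg/mL VLPs, peroxidase anti-mouse detection with OPD, background from PBS-coated control wells subtracted.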 Background: In an ELISA, binding on a coated surface is turned into a signal by an enzyme label.
Protocol: (§1) To do this, the VLPs produced were deposited at a concentration of 1 μg/mL in PBS and incubated overnight at +4° C. The wells were then blocked for 1 h at +37° C. with a PBS/FCS (phosphate-buffered saline/fetal calf serum) mixture. After dilution in a dilution buffer containing FCS, PBS and Tween® 20, the various hybridoma culture supernatants were added for 1 h at +37° C. The wells were washed four times in a row with Wash Buffer and a secondary anti-mouse antibody coupled to peroxidase was added to the 1:2000 dilution for 1 h at +37° C. The wells were washed four more times and the substrate (OPD (ortho phenylene diamine)+H₂O₂) was added for 30 min at room temperature. A stop solution (H₂SO₄ 4N) was then added and each well was read by measuring the absorbance at 492 nm with a spectrophotometer. The value obtained for the average of the control wells (PBS in the first step) is subtracted from the optical density values obtained for each well.

Test [2] addresses T2, virus-like particles (VLPs) of BK polyomavirus VP-1 protein, serotype Ib2 (BK virus (BKPyV), serotype Ib2, PA …, UniProt P03088 1-362).
T2 construct: native VLPs; also the immunogen; also called VLP Ib2; BK Ib2
T2 chain: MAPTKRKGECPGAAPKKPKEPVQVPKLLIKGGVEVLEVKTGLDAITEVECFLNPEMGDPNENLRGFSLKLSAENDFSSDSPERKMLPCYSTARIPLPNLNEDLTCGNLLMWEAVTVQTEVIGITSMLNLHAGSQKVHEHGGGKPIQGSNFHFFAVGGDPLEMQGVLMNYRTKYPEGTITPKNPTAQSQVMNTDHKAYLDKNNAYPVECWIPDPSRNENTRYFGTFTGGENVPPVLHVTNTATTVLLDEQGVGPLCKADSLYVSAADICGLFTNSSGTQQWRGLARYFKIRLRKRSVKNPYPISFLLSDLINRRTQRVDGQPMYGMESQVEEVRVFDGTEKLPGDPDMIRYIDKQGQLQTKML
The experiment in a line: ELISA on coated VLP.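 Note: hybridoma culture supernatants (mouse antibodies) tested on wells coated with 1 µg/mL VLPs, peroxidase anti-mouse detection with OPD, background from PBS-coated control wells subtracted.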
Protocol: as §1

In test [3] the target is T3, virus-like particles (VLPs) of BK polyomavirus VP-1 protein, serotype II (BK virus (BKPyV), serotype II, UniProt P14996 1-362).
T3 construct: native VLPs; also called VLP II
T3 chain: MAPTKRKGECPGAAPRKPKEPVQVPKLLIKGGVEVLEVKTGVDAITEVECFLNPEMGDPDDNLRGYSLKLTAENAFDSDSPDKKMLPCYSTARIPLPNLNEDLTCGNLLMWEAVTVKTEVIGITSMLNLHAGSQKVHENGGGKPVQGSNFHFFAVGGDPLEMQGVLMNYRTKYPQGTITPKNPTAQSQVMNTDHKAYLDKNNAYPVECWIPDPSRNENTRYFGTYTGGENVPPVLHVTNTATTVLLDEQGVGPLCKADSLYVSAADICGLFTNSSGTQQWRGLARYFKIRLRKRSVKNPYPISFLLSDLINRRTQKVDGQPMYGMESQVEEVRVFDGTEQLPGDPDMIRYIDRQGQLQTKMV
The experiment in a line: ELISA on coated VLP.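 Note: hybridoma culture supernatants (mouse antibodies) tested on wells coated with 1 µg/mL VLPs, peroxidase anti-mouse detection with OPD, background from PBS-coated control wells subtracted.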
Protocol: as §1

Test [4] addresses T4, virus-like particles (VLPs) of BK polyomavirus VP-1 protein, serotype III (BK virus (BKPyV), serotype III, UniProt P14996 1-362).
T4 construct: native VLPs; also called VLP III
T4 chain: T3 chain with R16K, N62H, L68Q, K69H, R215K
The experiment in a line: ELISA on coated VLP.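 Note: hybridoma culture supernatants (mouse antibodies) tested on wells coated with 1 µg/mL VLPs, peroxidase anti-mouse detection with OPD, background from PBS-coated control wells subtracted.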
Protocol: as §1

The target in test [5] is T5, virus-like particles (VLPs) of BK polyomavirus VP-1 protein, serotype IV (BK virus (BKPyV), serotype IV, UniProt P14996 1-362).
T5 construct: native VLPs; also called VLP IV
T5 chain: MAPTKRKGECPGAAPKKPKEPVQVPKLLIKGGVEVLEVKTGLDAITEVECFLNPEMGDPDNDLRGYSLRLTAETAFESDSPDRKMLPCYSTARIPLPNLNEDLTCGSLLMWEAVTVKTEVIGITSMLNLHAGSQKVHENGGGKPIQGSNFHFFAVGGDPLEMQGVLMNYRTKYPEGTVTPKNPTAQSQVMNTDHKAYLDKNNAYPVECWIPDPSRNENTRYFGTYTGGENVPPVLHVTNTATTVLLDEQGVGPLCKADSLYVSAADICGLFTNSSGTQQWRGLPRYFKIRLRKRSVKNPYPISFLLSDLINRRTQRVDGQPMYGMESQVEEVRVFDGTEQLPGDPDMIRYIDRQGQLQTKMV
The experiment in a line: ELISA on coated VLP.
Protocol: as §1

Test [6] has as its target T6, virus-like particles (VLPs) of JC polyomavirus VP-1 protein (JC virus (JCPyV), UniProt P03089 1-354, Assembled into virus-like particles (many VP-1 copies); the letters give one VP-1 chain.).
T6 construct: Expressed in insect cells by baculovirus; VLPs coated on ELISA plates; also called JCPyV VLPs; JCPyV
Kind of test: ELISA on coated JCPyV VLPs.

For test [7], the target named is T3, virus-like particles (VLPs) of BK …. The experiment in a line: ELISA on coated VLP; supernatant 1/5 120.
Protocol: as §1
Test [8] concerns the target T5, virus-like particles (VLPs) of BK …. The experiment in a line: ELISA on coated VLP; supernatant 1/5 120.
Protocol: as §1
The target in test [9] is T2, virus-like particles (VLPs) of BK …. The experiment in a line: ELISA on coated VLP (detection limit OD>0.5).
Protocol: as §1
Test [10] deals with T6, virus-like particles (VLPs) of JC …. The experiment in a line: ELISA on coated VLP (detection limit OD>0.5).
Protocol: as §1

Where a chain is given by its changes, count along the chain named.

T6 sequence (P03089 whole entry): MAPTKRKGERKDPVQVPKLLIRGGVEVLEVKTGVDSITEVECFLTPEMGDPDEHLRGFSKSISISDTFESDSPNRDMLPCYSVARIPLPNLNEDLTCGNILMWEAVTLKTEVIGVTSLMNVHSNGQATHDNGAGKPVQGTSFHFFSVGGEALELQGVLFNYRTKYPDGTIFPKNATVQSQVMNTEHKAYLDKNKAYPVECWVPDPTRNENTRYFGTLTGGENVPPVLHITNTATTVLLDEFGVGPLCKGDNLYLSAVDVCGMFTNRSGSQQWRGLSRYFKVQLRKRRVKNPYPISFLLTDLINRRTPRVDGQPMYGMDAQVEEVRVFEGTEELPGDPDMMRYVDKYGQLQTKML

B1: monoclonal antibody ‘H6’ secreted by clone BK6A2H6 (antibody, V domains shown)
VH: EVQLQQSGPELVKPGASVKISCKASGYSFTGYFMNWVKQSHGKSLEWIGRINPYNGDTFYNQKFKGKATLTVDKSSSTAHMELLSLTSEDSAVYYCGSYYYGDYFDYWGQGTTLTVSS
VL: SIVMTQIPKFLLVSEGDRVTITCKASQSVSNDVAWYQQKSGQSPKLLIYYASNRYTGVPDRFTGSGYGTDFTFTISTVQAEDLAVYFCQQDYSSPLTFGAGTKLELKR
B1: the “OD 492 nm” value came to 3.06 OD in test [1]; 3.19 OD in [2]; 0.86 OD in test [3]; 0.481 OD in [4]; 3.21 OD in [5]; 0.05 OD in test [7]. The results for the “OD 492 nm” value in [8], in [9] and in test [10] were 0.26 OD, 2.97 OD and 0.013 OD, respectively. The binding result in [6] is “no binding (tested: detection limit: OD>0.5)”.

B2: monoclonal antibody ‘F6’ secreted by clone BK6A2F6 (antibody)
heavy: EVQLQQSGPELVKPGASVKISCKASGYSFTGYFMNWVKQSHGKSLEWIGRINPYNGDTFYNQKFKGKATLTVDKSSSTAHMELLSLTSEDSAVYYCGSYYYGDYFDYWGQGTTLTVSSAKTTPPSVYPLAPGSAAQTNSMVTLGCLVKGYFPEPVTVTWNSGSLSSGVHTFPAVLQSDLYTLSSSVTVPSSTWPSETVTCNVAHPASSTKVDKKIVPRDCGCKPCICTVPEVSSVFIFPPKPKDVLTITLTPKVTCVVVDISKDDPEVQFSWFVDDVEVHTAQTQPREEQFNSTFRSVSELPIMHQDWLNGKEFKCRVNSAAFPAPIEKTISKTKGRPKAPQVYTIPPPKEQMAKDKVSLTCMITDFFPEDITVEWQWNGQPAENYKNTQPIMDTDGSYFVYSKLNVQKSNWEAGNTFTCSVLHEGLHNHHTEKSLSHSPGK
light: […]
On to B2, for which the “OD 492 nm” value in test [1] was determined as 3.23 OD; in test [2] it was 2.89 OD; in test [3], 1.65 OD; in test [4] it was 0.42 OD; in test [5], 3.16 OD; in test [7], 0.07 OD. Further, the “OD 492 nm” value in [8] was 0.77 OD; in [9] it was 3 OD; in test [10] it was 0.028 OD. For the same molecule, the binding result in test [6] is “no binding (tested: detection limit: OD>0.5)”.

B3: monoclonal antibody ‘18A2’ derived from hybridoma 18A2 (antibody, V domains shown)
VH: DVQLQESGPGLVKPSQSLSLTCSVTGYSITSGYYWNWIRQFPGNKLEWMGYISYDGSNNYNPSLKNRISITRDTSKNQFFLKLNSVTTEDTATYYCARWEGTTDYWGQGTTLTVSS
VL: not shown
notes: Mouse hybridoma antibody
Consider B3, for which the “OD 492 nm” value was found to be 2.22 OD in [1]; 3.02 OD in test [2]; 1.05 OD in [3]; 0.763 OD in test [4]; 1.22 OD in [5]; 0.565 OD in [9]. In addition, in test [10], the “OD 492 nm” value came to 0.116 OD. Further, in test [6], the binding result was “no binding (tested: detection limit: OD>0.5)”.
